For this series the following is noted: Hordeum vulgare, whole UniProt chain shown.
The mark [1] stands for this setting: pH 3, Thermal, DSC, glycine-HCl 10 mM.
The mark [2] stands for this setting: pH 6.25, 25 °C, GdnHCl, Fluorescence, MES 50 mM.

B1: Subtilisin-chymotrypsin inhibitor-2A wild type, P01053 (protein)
chain: MSSVEKKPEGVNTGAGDRHNLKTEWPELVGKSVEEAKKVILQDKPEAQIIVLPVGTIVTMEYRIDRVRLFVDKLDNIAQVPRVG
What is called Tm is the temperature at the midpoint of the melting transition. For the protein B1, under setting [1], the Tm came out at 63.8 °C and the “unfolding enthalpy (calorimetric)” value is 60 kcal/mol. Besides, under setting [2], the denaturant m value amounted to 1.9 kcal/mol/M, the “denaturant midpoint (higher = more stable)” value was 4 M and the unfolding free energy turned out to be 7.61 kcal/mol.

The values above are taken from FireProtDB (doi:10.1093/protein/7.6.777).
